In the supplement of paper PMC12042874:
± gives the uncertainty stated by the source.

Assay: amyloid nucleation score (Sup35N fusion, yeast selection) (log enrichment); library NNK3; higher = more nucleation; inactive = no reads after selection
Method in brief: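 Libraries of peptides of 20 random codons fused to Sup35N were expressed in psi-negative yeast and induced 24 hours with 100 μM copper sulfate. Selection was 7 days at 30°C on medium lacking adenine and uracil, and plasmid inserts were Illumina-sequenced before and after selection. Nucleation score is the DiMSum log enrichment of output over input reads, centred on the mode score of non-aggregating sequences, and sequences with under 100 input reads were left out.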

Substance	amyloid nucleation score
LAGSCMGLMCWVVDARAVGR	0.06 ± 0.64
LAGSSVVKLYGPVLRFFSSL	inactive
LALFVSCICVIVSELFFTMN	inactive
LARFMANLTGNC	inactive
LARLYYHFLEVHYVLCIC	inactive
LARPHDNSGCCSSNCDLRSC	inactive
LARRRSTCDICWLSYKATDL	inactive
LARVFASTGSSCSRSMNAMN	inactive
LASNDFTDVLHWC	inactive
LASRSHKHINATLAHLNPLL	inactive
LAVSGKEHAK	inactive
LAVVDCGYM	inactive
LAWVLMHSAKLGLKKRQAWG	inactive
LAYQGSGLIQQLAGLKHTTV	inactive
LCAQGYDLFALCKVYWLREW	inactive
LCDSGWELMYKLCTDKDMIL	inactive
LCDVQNTNNW	inactive
LCEKYFLRRFYFMTTGLSGR	inactive
LCETYYHHTARGLHLASLVS	inactive
LCFFVERRLKGYDVGLSNLL	inactive
LCGATCLMFMLHVKCTSGFE	inactive
LCHRY	inactive
LCHWFL	inactive

Substance	amyloid nucleation score
LCIFKVLF	0.969 ± 0.16
LCISKKVMNFSNASHGGQQC	inactive
LCITPNLKSFFESYVRFSEL	inactive
LCLCVRFFKAFNRFNYRRFF	inactive
LCLCYNLMSLLLLHLCREGQ	inactive
LCLFLSQMFSNRYEIFPLFV	inactive
LCLVLWVSK	inactive
LCSIVWRGIRDAYGQRYYVV	inactive
LCTKGYWFKAPNYLLSKLCF	inactive
LCWPGTVDWFQGWRKAG	inactive
LDAFRRLLEGASRTKCTF	inactive
LDEFY	inactive
LDGFSSKILGMFEEAVVYRM	inactive
LDLFSRNSETRAKSDRVWWT	inactive
LDRFENINRL	inactive
LDSFATRGYSWSLGIIVMKI	inactive
LDSYVDFLTYFSQKGSRHHL	inactive
LEASESGIVEVPQPNYCITP	inactive
LECILADIASCIQPRAYCIS	inactive
LEFRNHPMSYYTLVGQCVRK	-0.372 ± 0.8
LEGALRQDSCHKVPKLGQPV	inactive
LEKELRLCSKAWLSSQISIV	inactive
LELLRTERKRMKCLKPVLRV	inactive

Substance	amyloid nucleation score
LESSVMLLKRRIILVLCLHG	inactive
LETLVKPLELGSYFDFCCWA	inactive
LEVWSRRYWCHRLFNSIAMM	inactive
LFAIDNWVVKDSLVVWCEGR	inactive
LFCSYNRRGAHLAGCAR	inactive
LFCVPWVVISPHHSIHRIWV	inactive
LFDHYWLGSWIVENSYPSGE	inactive
LFEDKCGNPWRNY	-0.126 ± 0.88
LFFYNWVICRSNRYHGL	inactive
LFGFQNDCYMDNRYW	inactive
LFGYDSISLINRGCVGGFNV	inactive
LFHNCHGFFHTNNVPFVRWP	inactive
LFLGLVLAHPPDRVRLSTVL	inactive
LFLLNVAYCNCFT	3.27 ± 0.059
LFLMWRTYYVNILESSCVVC	inactive
LFLWKTTMTPGLHRSSVVGR	inactive
LFLYQLLSGHC	inactive
LFMEDVLRFGLLYLI	inactive
LFMKSVEMWNRGYLSITCMC	inactive
LFMLVAE	inactive
LFNLGICYTISNYSLSLEQS	2.1 ± 0.086
LFRDKDVDVVSSN	inactive
LFSLCWRCTLLKLYCPNWCY	inactive

Substance	amyloid nucleation score
LFYMLPIIVFAPVLMAWLSF	inactive
LFYSRGHLSGLGLGVMAPFI	inactive
LFYSTARCEKSRCVMGRMRG	inactive
LGAWVGVFMLKQ	inactive
LGDNLEGNIGLLL	inactive
LGGNMTCLSQDYLRTSKELL	inactive
LGKSKFMAGQFLFCYSSVVL	1.58 ± 0.12
LGLILIVLLVRPVFDSKRLD	inactive
LGPVIS	-0.46 ± 1.7
LGVALVTICVLRECGKILYI	-0.107 ± 0.68
LGYLRFVLIYQTCCQLTKSP	-0.617 ± 0.6
LGYPCFSKWFVYSRSIGLEG	inactive
LHASMLLLRNNRSRS	inactive
LHGHLGWWNVLDCPICLNFI	inactive
LHHAVVREWRFQKNVCRQLR	inactive
LHICTLYREVVVAAQCS	inactive
LHLGMRLV	inactive
LHLMWMPVTCGEVALCDGQS	inactive
LHLYNVDVNLIGPQVY	inactive
LHMCNS	inactive
LHMEG	-0.611 ± 1.1
LHNCPVDGWAAVSRSVVGRE	inactive
LHSFLRCDCSIARF	inactive

Substance	amyloid nucleation score
LHSLKHNCVFSAIVGHCFQC	2.11 ± 0.098
LHTICHMLLIH	inactive
LHTSTTPKTMKRRSQLSNQK	inactive
LHVPGLIYF	inactive
LIAMICSLGTYFLIVAFELI	inactive
LIDNRRFRHLLTRNVFVSHH	inactive
LILAQVLWFGFETGGKLETM	inactive
LIPASLKADRQCAHSRYSR	inactive
LIRCCFPHMSGVLFMKFTLT	inactive
LIRVGKDRVVSMEEVRCLLR	inactive
LISINLVQTSPRPRHYYLCS	inactive
LISNAQA	inactive
LITGLDLPGIWHTVYSYYSV	inactive
LIWYRNDEWYSFLWMVYCSS	inactive
LKAYKFMSSNQHTRTAFLGD	inactive
LKLRSRITNINILDVRYWIC	inactive
LKLTHD	inactive
LKNHNLVTKHYYARLMIGLW	inactive
LKRVDEVVIDPLYREGYTER	inactive
LKSGVFFG	inactive
LKTCFIP	inactive
LKTSNRR	inactive
LKVNIWLPGRPFTILWSPRR	inactive

Substance	amyloid nucleation score
LKYIDTSFMLGFSIVSLRFQ	inactive
LKYLCYHRQCSLMPRCWMDR	inactive
LKYSHEHGFFSYYACWCQQL	inactive
LLCFVDVSYVHNA	0.834 ± 0.23
LLCSKARSCRVDRMKRGGWV	inactive
LLDSVNGHCYMCLTIMGVRN	inactive
LLFCVLFATPINCISLIMSE	inactive
LLFFLAGVSSHIMYLVYARC	inactive
LLFVVQWWFNRFFE	inactive
LLIIVYLVWCALIRRGTQPR	inactive
LLISGCRSFMMAFSGCL	inactive
LLKEFIL	inactive
LLKHMSLFVLRSSNR	inactive
LLLRLLTMMVFNCILVDYGL	inactive
LLLVKSTI	-0.176 ± 0.56
LLLVSLELTRLNSHEWVYVI	inactive
LLLVWRLKVSGGLDSNRTGV	1.05 ± 0.13
LLMGSSSSV	inactive
LLRGLAIGKKDYIYSLLLLH	-0.619 ± 1.4
LLRHDLYRVCTNRV	inactive
LLRVCVSFRCIVNSCMRR	inactive
LLSLFFIHPTATRRTKVSRC	inactive
LLSPQFRRIGSFRWKFAPRF	inactive

Substance	amyloid nucleation score
LLYFSVLRSEL	inactive
LLYYSSINYFLLLGFCSEEL	1.51 ± 0.065
LMAVHMGMCMHEILHAVSLR	inactive
LMETSSRYTFYMKGLHRTMS	0.428 ± 0.27
LMGVDSLLYRKHSGV	inactive
LMIISGCSHMSHSVRSTRGL	-0.217 ± 0.58
LMIMSKVSKSP	0.465 ± 0.25
LMLMVCVN	-0.601 ± 0.74
LMNEKNPSQDNRFRIVRALS	inactive
LMNEY	inactive
LMPRTEI	inactive
LMSYSRFGCSDSYLNVDSSA	inactive
LNAMWAWSRLDCNWGIQRNR	inactive
LNCDIVFELL	inactive
LNFCDRTIEICRLEY	inactive
LNGSAHYRGCCLKRRTICWM	inactive
LNLGHDGYPNTSARVFHFC	inactive
LNMLKVLFSWIRYDGNQ	inactive
LNPPNKYDLDVFWVMVSYKK	inactive
